The record followed here is the supplement of paper PMC12042874.

± gives the uncertainty stated by the source.

This data set is described as follows: amyloid nucleation score (Sup35N fusion, yeast selection) (log enrichment); library NNK3; higher = more nucleation; inactive = no reads after selection. The method in brief: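 Sup35N was fused to peptides of 20 random codons and expressed in psi-negative yeast, which were induced with 100 μM copper sulfate for 24 hours and then grown on medium lacking adenine and uracil for 7 days at 30°C. Plasmid inserts from input and output were sequenced on Illumina. The nucleation score is the DiMSum log enrichment of output over input reads, centred on the mode score of non-aggregating sequences. Sequences with under 100 input reads were left out, and random libraries had three technical output replicates.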
As for TSHNGPYLSMFFRVANT, the amyloid nucleation score result is “inactive”.
As for FWSWNVWLRSGSPAISFHK, the amyloid nucleation score result was “inactive”.
The substance RFYSARGGKRARIHVRVKWD displayed an amyloid nucleation score of -0.446 ± 0.55.
ICSVVIEGVFLRRLWDSRVS: the amyloid nucleation score entry was “inactive”.
On to PFNPSYIFRLLYL, for which the amyloid nucleation score entry is “inactive”.
As to KCEFN, the amyloid nucleation score result was “inactive”.
The value for HSVIPWDTISDTA was “inactive”; that for PRIWLVAFQTKTCYPSGGWL was -1.47 ± 1.9; that for QELMEKDGRASKDQAWASIV was “inactive”.
For FIHLMLNMRFWRNTFNMPHA, the amyloid nucleation score entry is “inactive”.
YLLSIEYVNLAIVDNSWRMF: the amyloid nucleation score stood at 1.04 ± 0.094.
Then MLLDTLCNHLRVYKYVRGDG, with “inactive”; and RPSSQVYGRWEIYIKYL, with “inactive”.
DENVRLTL: the amyloid nucleation score result is “inactive”.
Take LVVLFGPNFLIPVGLRIAVN: the amyloid nucleation score is 0.245 ± 0.37.
Then IHMPHLGIGSKKRVSVRGDA, with “inactive”; and SMWQQVYSLSTLF, with “inactive”.
Regarding VDGATFFISWKIMARDSYRY, the amyloid nucleation score entry was “inactive”.
In the case of FIDQVDIVVCWSTWAI, the amyloid nucleation score entry is “inactive”.
As to AACHINNICKSLVL, the amyloid nucleation score entry is “inactive”.
Then TTHNAFMSNNNIR, with 0.711 ± 0.13; and MAHDEYWTGCVTGYKELEVM, with “inactive”.
In the case of CTTRMCNGLWNARLRGTTSP, the amyloid nucleation score entry is “inactive”.
Regarding DVYKNPLSEQPSRYCTE, the amyloid nucleation score result was “inactive”.
Turning to YTGSVRFVEM, the amyloid nucleation score result was “inactive”.
On to GAPGLMFVFLKKSVFLYSYL, for which the amyloid nucleation score entry was “inactive”.
The value for VCLHDRLGVHVGQIRLGYRC was “inactive”; that for YRLRSICSFLGVVSYG was “inactive”; that for RLQPFVHFVYCWESIVVCMW was 1.56 ± 0.068.
In the case of HRVIWSFSFVRSDFCFPYCA, the amyloid nucleation score entry was “inactive”.
For GSSIEPDWL, the amyloid nucleation score entry is “inactive”.
GTYLKNF: the amyloid nucleation score entry was “inactive”.
On to CVYNRLNMF, for which the amyloid nucleation score was -0.296 ± 0.28.
As to AYRAITGSCVMSEVRGAWRL, the amyloid nucleation score result was “inactive”.
With IWILRKVVLRVVWMRYLGVK, the amyloid nucleation score result is “inactive”.
For TCFVLQNKYVSRCGCWMCYS, the amyloid nucleation score worked out at 2.12 ± 0.051.
Turning to MRWCNQDQL, the amyloid nucleation score entry is “inactive”.
Consider VSVDWGLPRFGYTYKIL, for which the amyloid nucleation score result is “inactive”.
Take GLFESERIYMWAYHFR: the amyloid nucleation score entry is “inactive”.
The value for WWNLWSPAATATRRCY was -0.462 ± 0.9; that for VHLWGGRGHQLVWVHVRWGV was “inactive”; that for SCRVTPVLR was “inactive”.
Then GYMRSLYIRYYSRRRFRCI, with “inactive”; and HENYEFLFWWRESFS, with “inactive”.
Regarding FIVSNYKSFVLYHLLNRMLV, the amyloid nucleation score result is “inactive”.
GTISIGSIRAVLLAFPFYAL came in with an amyloid nucleation score of 1.08 ± 0.13.
CMTFLNIYSNGQLSGTYCLF: the amyloid nucleation score was determined as 1.59 ± 0.083.
Take KRLLVKVLLDVIGAYRDSSC: the amyloid nucleation score result was “inactive”.
With HFPTCWVGYVKHAVLRYLIY, the amyloid nucleation score result is “inactive”.
CVSRICVWPRYETTGFYAST: the amyloid nucleation score entry was “inactive”.
For the substance LLRGLAIGKKDYIYSLLLLH, the amyloid nucleation score was -0.619 ± 1.4.
Regarding GIRHVGLVGTMSRKDWSYFR, the amyloid nucleation score entry is “inactive”.
For GASGCLSWHFGLIV, the amyloid nucleation score entry was “inactive”.
With FHSWIFQTISLPGQGYRLQ, the amyloid nucleation score entry is “inactive”.
In the case of LSLFPMGCIYKHRIGLVTAK, the amyloid nucleation score entry is “inactive”.
Then YLTCDKTNVNGFMI, with “inactive”; and RTMAFLIFS, with 0.172 ± 0.56.
On to VSMFMNRNQKSIKNRVRHYM, for which the amyloid nucleation score result is “inactive”.
Take FGTCLNLYL: the amyloid nucleation score worked out at 1.3 ± 0.11.
On to IEDQHLHVVLTGWGSKLSGH, for which the amyloid nucleation score entry is “inactive”.
With NNRLRGHF, the amyloid nucleation score entry is “inactive”.
Regarding CLVYLV, the amyloid nucleation score result is “inactive”.
Consider SLKARDVRSWSLSLLVQLAF, for which the amyloid nucleation score entry is “inactive”.
KGVGHSTLTIIFLLSALRFS registered an amyloid nucleation score of 1.02 ± 0.14.
The value for HFPAGFFSNWFCSIYYKVY was “inactive”; that for SFNLNCDDQSRNYRADVSDS was 1.16 ± 0.099; that for LSMHVVFVYIGFPHMDFDGS was “inactive”.
Then SVVYRKDSIKQRKEFSSHAF, with “inactive”; and SSYIESQELHSWAVQLRLLV, with “inactive”.
The value for KFYDHTLCFVDWRDFSW was “inactive”; that for GYMWNRVGCLVEDDHNEGVN was “inactive”; that for KAPRCGVKAMLKGVMGFRRR was 0.531 ± 0.24.
Consider KLNGFPWRPAWHEVMAGWVW, for which the amyloid nucleation score entry was “inactive”.
Take SHVSRVNEVSVISMSDINDH: the amyloid nucleation score result is “inactive”.
For MQLSCRLGSLCSQQSNLARS, the amyloid nucleation score result was “inactive”.
The value for PLVMGFIRVHCIFRRRFG was “inactive”.
Turning to PLSMSHVGAGLKF, the amyloid nucleation score entry is “inactive”.
Then VCGIVIRGKVPKDKQYNMGE, with “inactive”; and NVSFCDDASARANVYHLGKS, with “inactive”; and NKFFDI, with “inactive”.
Then VYGASTLSAHMWR, with “inactive”.
TGRVCFLCYTMSLIWSSPVT: the amyloid nucleation score was found to be 0.07 ± 0.7.
The value for FCVEIMSLSVRGCWGYSFGT was “inactive”; that for FVISYELWAVSERNWSFEMR was “inactive”; that for QTMKWSIVHGQKTGGSWVDM was “inactive”.
Then HSSGDTWLGRV, with “inactive”.
Then RYSSNRLTLMWDCIEGGSAW, with 1.03 ± 0.14; and LRSWNMLPRWVGRYWIFGGK, with “inactive”; and RLNAYMCLEMVTLSTRKHVG, with 1.79 ± 0.079.
With LMLMVCVN, the amyloid nucleation score is -0.601 ± 0.74.
Regarding KNIPFYIGWVEVSTAGARYP, the amyloid nucleation score entry is “inactive”.
Consider VTEYKFKVFLPMRKRSVIMV, for which the amyloid nucleation score entry is “inactive”.
For the substance FYNVRF, the amyloid nucleation score entry is “inactive”.
Take HHKAEGAHVKITDLSFDVKS: the amyloid nucleation score result is “inactive”.
Then VWVDFGFPVHMIIL, with “inactive”.
ITRWHGSLHSDYGIGICFSI: the amyloid nucleation score entry is “inactive”.
